Several values for one entry are separate records, joined by “and”; a condition that tells them apart may be missing. Equal entries are not always repeated.
What was measured:
[1] = target: C326A pea porphobilinogen synthase (pea (Pisum sativum)); assay: native gel or EMSA
[2] = target: C326A pea porphobilinogen synthase (pea (Pisum sativum)); assay: AUC
[3] = target: C326A pea porphobilinogen synthase (pea (Pisum sativum)); assay: AUC; remark: listed apart in the source
[4] = target: C326A pea porphobilinogen synthase (pea (Pisum sativum)); assay: AUC; remark: listed apart in the source

stoichiometry N [1]: 8
stoichiometry N [2]: 8
stoichiometry N [3]: 6 and 8
stoichiometry N [4]: 8 and 6
Substance: C326A pea porphobilinogen synthase (enzyme)

Reference: PMC2559947
